koff data for one molecule are collected here from paper PMC11210195 (2024).

A word on the koff: it is a measure of how fast the partners let go of each other. High values mean fast dissociation, low ones slow dissociation.

The target in assay [1] is mAb1 WT-AAA (human, UniProt P01857 = IgG part). The assay is described as follows: SPR. For orientation: SPR reads the build-up and loss of mass on a sensor chip optically.
The target of assay [2] is mAb1 WT (human IgG1 Fc WT) (human, UniProt P01857 = IgG part). The assay is described as follows: SPR.

B1: TRIM21 PRYSPRY domain (domain or fragment)
chain: GLKKMLRTCAVHITLDPDTANPWLILSEDRRQVRLGDTQQSIPGNEERFDSYPMVLGAQHFHSGKHYWEVDVTGKEAWDLGVCRDSVRRKGHFLLSSKSGFWTIWLWNKQKYEAGTYPQTPLHLQVPPCQVGIFLDYEAGMVSFYNITDHGSLIYSFSECAFTGPLRPFFSPGFNDGGKNTAPLTLCPLNIGSQGSTDY
modifications: biotinylated where it was captured via monovalent streptavidin
For the molecule B1, the koff is 0.105 s⁻¹ in assay [1] and 0.0994 s⁻¹ in assay [2].
